Assay: label from the status in PepcDB records

With “MKKLKIVMTGGGSAGHVTPNLALVPKLKELGYEIEYIGTKDGIERSIIEKENIKYNCISSGKLRRYIDIKNFSDPFKVILGIFQSVSILRKKKPNIVFSKGGFVSVPVVIAAHFCRIPVIAHESDITPGLANRIAVPYCTKVCATFPESLNNIKGNKGILTGTPIRDELFKGSKIKGLEICGFTGEKPVLMIIGGSLGSKIIN” as the sequence, how does the protein production read?
The protein production was “failed”.

Which protein production does the source give for “MKKLNIALLGLGTVGSGVVKIIEENRQQIQDTLNKDIVIKHILVRDKSKKRPLNISQYHLTEDVNEILNDDSLDIIVEVMGGIEPTVDWLRTALKNKKHVITANKDLLAVHLKLLEDLAEENGVALKFEASVAGGIPIVNAINNGLNANNISKFMGILNGTSNFILSKMTKEQTTFEEALDEAKRLGFAEADPTDDVEGVDAARKVVITSYLSFNQVIKLNDVKRRGISGVTLTDINVADQLGYKIKLIGKGIYENGKVNASVEPTLIDKKHQLAAVEDEYNAIYVIGDAVGDTMFYGKGAGSLATGSAVVSDLLNVALFFESDLHTLPPHFELKTDKTREMMDSDAEINIKEKSNFFVVVNHVKGSIENFENELKAILPFHRSLRVANYDNQSYAAVIVGLESSPEELITKHGYEVDKVYPVEGV” here?
Its protein production is “failed”.

With “MKKLTVYLATTNPHKVEEIKMIAPEWMEILPSPEKIEVVEDGETFLENSVKKAVVYGKKLKHPVMADDSGLVIYSLGGFPGVMSARFMEEHSYKEKMRTILKMLEGKDRRAAFVCSATFFDPVENTLISVEDRVEGRIANEIRGTGGFGYDPFFIPDGYDKTFGEIPHLKEKISHRSKAFRKLFSVLEKILESENR” as the sequence, how does the protein production read?
The protein production was “not failed”.

Which protein production does the source give for “MKKNDLSALQENCFCFCDEEISREAPFQVPIDFPEGFKVDTAEASAAVTWSTDNLSCISEPCLIQTGPEPEDIGVRYAVRVQGTITLLVSVSPVRNQYGQGDGAVSVIHTEEIDQVVYYAAQSGRCPDFSQITVEDLLIVPPFYGSPLTVAGTLVLPPSPDPQSYVFTANTGDSTVSVIDADLNTVVKTIPFSDVPTNLGVTFDKAFTYVLHGNTNLVSVIDNKTLTIINTITVGGGPRKIEFDPTDEFAYVMAAGSIYVINTASQSVIDVIPIPGALDFALDPNGQYVYTANGSSWSVDKYDVNTGQLVESIIDTFEFPSLITTPYAGNFAYVLNGELWPKGVTEISLSPLSRGGDFSRLFETLRTIVFSLDSTRAYFLEPYSEPFLINNLYVVNTARQRIIANVSLPGAFDLAVTPDKQYIYAAQPNDNAVTVYRTSDYTAVTVIPVGAGPSAIAMLEHHHHHH” here?
Its protein production is “failed”.

Which protein production does the source give for “MKKNILFIQGGGEGGYEADKHLVASLQQALGKDYAIQYPELSSDETAPDFGWPQQIGTLLSKTDDEIILAAHSLGASMLLKYLSEYVVKNKKIAGVFLLAAPFWEGKEEWKTGLKLKEHFSDTLPKDVPFFFYQCRDDEEVPFSHLEQYRKKLSRAAFREISSGGHTFHTDLSVLATDISAL” here?
The protein production was “failed”.

Which protein production does the source give for “MKKNNAISNFYRILSIVLEIFIVAFSIYLAYMVRFRFRIIPPKFNYAPFERSLPFTIIVYMVFMYIFGLVDILKKSLWEIVYSIFLTVIMLFVFTMAITFSLRGFSYPRLVILLSSVFQFFLLSIFKCLWWKLERKIYGTKNTVIIGQNGESIAKKILLKHDDLYSISSIIKNYTEDKKSIVEKADIVLISDDLDENTKSTIIKESMYMNKNIFIVPSVTDIAFYKANFEQIDDVPILKVDTLELSAEQKTVKRLLDIVVAIIATVVFSPFLIILPIIIKCTDGGSPFYFQERVTNGGKKFKLIKFRSMIVNAEKHSGPVLVTENDSRITKIGKIMRATRLDEIPQLFNILKGDMSIVGPRPERPFYVEKFEKEIPDYKYRTFVKAGLTGLAQVLGKYNTTPEDKIKYDIMYIKNYSILLDIKLIIQTVKIMFMKESTEAVKDDVELEEILKKKNIKIKIY” here?
Its protein production is “failed”.

With “MKKPVLETWLERGLFASRWLMAPFYVGLVVALAALMVVFFQELFQELPRVPSMTPESAILMALTLIDLSLAANLMVIVILSGYENFVSKIDTASHEDRPEWMGTVDFSGLKMKLIASIVAISAIALLKAFLKLTEPGQTVDQVRLFWLVMVHLSFVVSGVLLAVMDWLNAKVAKS” as the sequence, how does the protein production read?
Its protein production is “failed”.

Which protein production does the source give for “MKKQEKGNEVVTFEENPSTYVHHHTKKASMVLSEQEIEVILQSNKETYNEKLEKNTKENAEKVGIEEGNGSSSKITPCIFYTSDEKARLRWSSDLHDCFVNAVEKLGGPNKATPKSVKEAMEVEGIALHHVKSHLQKFRLGKCNIRGGTNQYVRQSQSMPHKSQQQLQLNNDCVNHDSYCNATFLSVTVPPTIDSLHQDTLNNTILFPTTLQAIPTSVSHNTYMSSYPSYNTVEVVKAQLNALQDSSTSQTQETFSRETNLSSIVTRDEADPVDKYIDWNKVGETDIEHDSVEVLEALGLK” here?
Its protein production is “failed”.

Which protein production does the source give for “MKKQLIILTTLSTCIFLSACNDNNDSGSYVSSPSIPENNIQNPVVRMDAYTSTDMSLVANESLLMTYKMLGINNKEVQATALVFTPKGVPPVGGWPIVAWAHGTTGVADVCAPSRNVMDENVKTMITQLLAQGYVVVAPDYEGLGEPSGKEIHPFLNVKSEAYSITDAVVAAKSYLGAKAATRWVAVGHSQGGQAALGAAQYASRAKLTYKGTIAVAPASNLDLILNAGELSAANQPVAVQIPTYTNLDTYTALITAGLRNPNPSLQYSQIFKTPSDSIAAQAESVCAPALGQSFAAGLTEYSNKNNNTLVGYGRTQDGFLNLPVVKNFTSTDGQPLTVKVSTPIKIYQGQADTTVPLIATNKLVTEAKLAGTNINFITNETWTHGSAYSLNISNIVTDVNTLFTQ” here?
Its protein production is “failed”.

Which protein production does the source give for “MKKRIILLLAVIIAAAAAGVAFYVAKDKGHEKAADVSVNTESGDELLVSITDTDLLTKYYENDKVIHEEKLTSYPAFALDQKQQVLYYTGNNEQNEMRLFKLDLKSHKKTMLYKGAESADSLFLSKDRSTIYFRLGKADESNFRIAAFDLKTKKYKNLYPAANDQDDTVSSFFYNQKNDSFALLHYSVEEDYKKTDEANEKGIDPEPTTIHFAEGRQNKFNELKSLNQFISDIAVSDDDKRILFTSYTQKGTEQTASIQMLNADTKKYESIISNQKSFKLLIDAQPQFSKDGKNIYFLAEAKGAKKLKDETGREAKVRTIYSYSLENKTFKKVWENPNGIINSFFVIN” here?
The protein production was “failed”.

With “MKKRILSAVLVSGVTLGTAAVTVNADDFDSKIAATDSVINTLSGQQAAAQNQVTAIKGQVGALESQQSELEAQNAQLEAVSQQLGQEIQTLSNKIVARNESLKKQVRSAQKGNLTNYINTILNSKSVSDAVNRVVAIREVVSANEKMLAQQEADKAALEAKQIENQNAINTVAANKQAIENNKAALATQRAQLEAAQLELSAQLTTVQNEKASLIQAKAQAEEAARKAAEAQAAAEAKAQAEAKAQAESVAKAQAAAQVESATAPTETVQTQPRTEIKPSNLTATSSATTVATTTATATNEPKVTQPSVVTKAVEAPKAVVSSTPRAVSKPVVRSYDSSNTYPMGQCTWGAKSMASWVGNYWGNANQWGASARAAGYSVGTTPRVGAVAVWPYDGGGYGHVAVVTSVANNSSIQVMESNYAGNMSIGNYRGSFNPSASGSVYYIYPN” as the sequence, how does the protein production read?
Its protein production is “failed”.

With “MKKRILSAVLVSGVTLSAAASVHAEDYDSQIAATNNAISNLASQQEAAQAQVATIQSQVSTLRTQKTELEAKNAELEKVSADLESEIQELSSKIVARQDSLAKQARSAQQNNTATSYINSILNSKSISEAITRITAISKVVTANNDLLTKQESDQKELAAKQEENQAAINTIAANKSELETTEAGLTTQQAELEAAQVTLAAELATAQNEKTSLVSAKSTAESVAASTAASVAQSQAIAESEATAQVVASSEAATSVASSEVAATSEAVAQPSETPVSETSTASEAAQEPASSETSEVQPESAAPAVSEAPASVAPVATSEAAPATSEAPASVAPVATSEAAPAVSEAPAPAAETHKVSAASTPNTYPVGQCTWGVKSLAPWAGNNWGNAKNWIASAQAAGHSVGTTPVAGAIAVWPNDGGGYGHVAYVTSASGANSIQVMESNYAGNMSISNYRGTFDPTSSAHGGSVFYIYPLEHHHHHH” as the sequence, how does the protein production read?
The protein production was “not failed”.

With “MKKRYKNPEKSGSCGNFIQAIKMTDKVQPLESLSKKPEEPKIVVNLRRIKRKIMVMSGKGGVGKSTVAANLAVGLALRGHRVGLLDCDIHGPTVPTIFGLESARPGVSEEGILPIEVLPNLSVMSIGFLLENKDSPIIWRGPAKMGAIKQFLEEVFWGALDFLIIDLPPGTGDEPLSVAQLIPNCDGSVLVTTPQDVALISVRKSITFSEKLNVPIIGLVDNMHGLICPHCGKPIEVFGSGGVEKASKDFNIPILARLPIEPGVAEMEDRGTVVQDQLKHGTEWQKNFDNVVDAVEKILEKELEHHHHHH” as the sequence, how does the protein production read?
The protein production was “not failed”.

Which protein production does the source give for “MKKSLIAFILIFMLVLSGCGMKDNDKQGSNDNGSSKSPYHRIVSLMPSNTEILYELGLGKYIVGVSTVDDYPKDVKKGKKQFDALNLNKEELLKAKPDLILAHESQKATANKVLSSLEKQGIKVVYVKDAQSIDETYNTFKQIGKLTHHDKQAEQLVEETKDNIDKVIDSIPAHHKKSKVFIEVSSKPEIYTAGKHTFFNDMLEKLEAQNVYSDINGWNPVTKESIIKKNPDILISTEAKTRSDYMDIIKKRGGFNKINAVKNTRIEVVNGDEVSRPGPRIDEGLKELRDAIYRK” here?
The protein production was “failed”.

With “MKKTKVHLISGFLGTGKTTALKSLMAQKDPNEKWVIIVNEFGEIGIDGAVLSDNGIPVAEIAGGCLCCTAGPQMGVTVQKMLRDAKPDRLMIEASGLAHAASVIDELKTKPLDSLLEIGAVFTVVDPRQFINPDYAQQALYKDQIGICDVLVASKTDLCTPEQLAEFHDKAAKLFPPKAKVVEVQNAQLDIQWLDIPVIEKSRYRLKALPDNTMGFQSQGFTFPAGRDFDGEKLTNFFNDLPNMTEGLVRAKGVFQVLGTWVWLNWVDGQWGANQVSWRRDSRFELIAKSFDADLIEQKLKDALELEHHHHHH” as the sequence, how does the protein production read?
The protein production was “failed”.

With “MKKTLILGATPETNRYAYLAAERLKSHGHEFIPVGRKKGEVLGKTIINERPVIEGVDTVTLYINPQNQLSEYNYILSLKPKRVIFNPGTENEELEEILSENGIEPVIGCTLVMLSAGTF” as the sequence, how does the protein production read?
The protein production was “not failed”.

For “MKKTLPKTEAPSSVGNGSDSPIEFDAIIRQVPDMDAAYVEIPFDVKTVYGKGRVRVNATFDGYPYTGYIVRMGLPCHILGLRQDIRRAIGKQPGDSVYVTLLPL”, which protein production is on record?
Its protein production is “not failed”.

With “MKKTLSVLVISSLLFGANVQAAALNAAQEKEVRALVRDTLVSNPEILEEAIMALQTKKADEQQAQFRQALASEHDALYNDAASPRIGAKDAKLVLVSFTDYNCPYCKRFDPLLEKITEQYPDVAVIIKPLPFKGESSAKASQAVLSVWKEDPKAFLALHQRLMQKKTMLDNASIEDAMKSTNTSKIKLTDDSLKTLQNNLELSRKLGIQGTPATVIGDTILPGAVDYDQLEIIVKEQLAKVKK” as the sequence, how does the protein production read?
The protein production was “failed”.

Which protein production does the source give for “MKKTLVIVVHPDLTKSVINKAWAKAIEGAATIHHLYEQYPNGQIDLAHEQALLEAHDRIVFQFPLYWYAAPYLLKKWMDEVFTEGWAYGAGGDKMEGKEICAAVSCGSPKSAFAEGAQQCHTLRSYLNVFDGIAAFLRARFTGYHACYDSYNPRLPEMLPANCEAYLRFIKGE” here?
Its protein production is “failed”.

For “MKKTMAKSLSVIIPACNEIDTISDVIQSVKGLNPLEIIVVANGCTDGTETVAEHLGCKVLRYTEKLGNDVGRAAGAKEAIGDVLLFIDGDFAIQTSKLQLFLNPILYNQADVVLNNLDALFLKRQKPNSITVWRQILNSILEREELKIDSLLAVPHALTKEVVQSIGYECFVNPILAHLRLVQGKWRISRHCAIDVITPNKFRPTEHAAYGTDLSPSEKRMIGDHIEAVAERIVGSDERGGYCDGNRKRDSVYHTLDFEDFYQGWGVTSNLYKGKQLSVIIPVQNEEKTIGNVIEEVRKIEPFEIIVVVNGSSDQTATIAKDKGATTIVYKEALGNDVGRSLGTYFAKGEIVLFIDGDFVIPASELYPFAKAIADGTDVALNDLNHYLDLRVPLHLVTAFKYALNLACDRKDLGVGSLVAVPNAFSRKCLKQIGYRSLLAPCVAQVKAILSGFEVACVSRVEVDKMNRIRPSEHLAKIGHPPAVLRIIGDHIEGLEQLIGLTGSRGGFHDGNRKRDIL”, which protein production is on record?
Its protein production is “failed”.

Reference: a protein production outcome set (Wang et al. 2014)
